Assay [1] addresses BiP ATPase domain (residues 28–405), His6-tag removed (human, UniProt P11021 28-405). The assay can be described thus: MST.
Assay [2] deals with T1, full-length BiP (BiP FL, residues 28–654), His6-tag removed (human, UniProt P11021 28-654). The assay can be described thus: MST; 10 mM AMPPNP.
For assay [3], the target named is T1, full-length BiP (BiP FL, residues …). Nature of the assay: MST; 10 mM ATP.
The target is the same in assay [4]. Nature of the assay: MST; 10 mM ADP.
Assay [5] has the same target. Nature of the assay: MST; no nucleotide.

Chain of BiP ATPase domain (residues 28–405), His6-tag removed (P11021 28-405): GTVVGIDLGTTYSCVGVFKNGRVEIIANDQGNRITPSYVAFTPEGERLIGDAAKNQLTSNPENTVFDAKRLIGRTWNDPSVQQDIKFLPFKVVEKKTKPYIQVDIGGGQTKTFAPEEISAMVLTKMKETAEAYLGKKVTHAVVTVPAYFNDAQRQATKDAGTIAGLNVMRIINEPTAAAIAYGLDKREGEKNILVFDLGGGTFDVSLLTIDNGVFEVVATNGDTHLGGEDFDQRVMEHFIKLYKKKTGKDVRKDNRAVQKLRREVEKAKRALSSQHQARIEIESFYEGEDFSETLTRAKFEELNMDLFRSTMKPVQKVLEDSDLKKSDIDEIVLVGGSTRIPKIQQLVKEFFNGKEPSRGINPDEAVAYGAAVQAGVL
T1 sequence (P11021 28-654): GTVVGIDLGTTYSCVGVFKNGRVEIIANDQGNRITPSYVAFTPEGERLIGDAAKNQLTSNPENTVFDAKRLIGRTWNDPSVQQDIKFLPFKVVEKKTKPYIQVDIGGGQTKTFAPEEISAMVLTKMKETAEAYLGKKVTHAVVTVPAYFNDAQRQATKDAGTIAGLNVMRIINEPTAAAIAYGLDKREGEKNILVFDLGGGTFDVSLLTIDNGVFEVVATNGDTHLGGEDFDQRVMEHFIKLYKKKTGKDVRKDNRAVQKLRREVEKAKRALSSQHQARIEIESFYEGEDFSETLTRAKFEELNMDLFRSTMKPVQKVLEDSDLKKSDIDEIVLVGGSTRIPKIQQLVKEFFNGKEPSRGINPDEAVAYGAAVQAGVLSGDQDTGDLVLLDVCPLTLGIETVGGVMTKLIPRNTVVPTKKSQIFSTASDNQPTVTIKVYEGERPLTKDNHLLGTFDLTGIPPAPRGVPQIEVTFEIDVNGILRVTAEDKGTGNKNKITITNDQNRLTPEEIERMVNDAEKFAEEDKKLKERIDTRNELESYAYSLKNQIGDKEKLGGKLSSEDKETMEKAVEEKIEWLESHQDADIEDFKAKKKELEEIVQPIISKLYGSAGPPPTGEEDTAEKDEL

B1: Perk luminal domain region II–IV (printed residues 54–403) (domain or fragment)
chain: LVIISTLDGRIAALDPENHGKKQWDLDVGSGSLVSSSLSKPEVFGNKMIIPSLDGALFQWDQDRESMETVPFTVESLLESSYKFGDDVVLVGGKSLTTYGLSAYSGKVRYICSALGCRQWDSDEMEQEEDILLLQRTQKTVRAVGPRSGNEKWNFSVGHFELRYIPDMETRAGFIESTFKPNENTEESKIISDVEEQEAAIMDIVIKVSVADWKVMAFSKKGGHLEWEYQFCTPIASAWLLKDGKVIPISLFDDTSYTSNDDVLEDEEDIVEAARGATENSVYLGMYRGQLYLQSSVRI
Turning to B1, binding in assay [1] was characterised by a dissociation constant (Kd) of 2280 nM.

B2: Perk luminal domain, complete (region I–V, residues 54–509) (domain or fragment)
chain: TSATRVPAAGAVAAAEVTVEDAEALPAAAGEQEPRGPEPDDETELRPRGRSLVIISTLDGRIAALDPENHGKKQWDLDVGSGSLVSSSLSKPEVFGNKMIIPSLDGALFQWDQDRESMETVPFTVESLLESSYKFGDDVVLVGGKSLTTYGLSAYSGKVRYICSALGCRQWDSDEMEQEEDILLLQRTQKTVRAVGPRSGNEKWNFSVGHFELRYIPDMETRAGFIESTFKPNENTEESKIISDVEEQEAAIMDIVIKVSVADWKVMAFSKKGGHLEWEYQFCTPIASAWLLKDGKVIPISLFDDTSYTSNDDVLEDEEDIVEAARGATENSVYLGMYRGQLYLQSSVRISEKFPSSPKALESVTNENAIIPLPTIKWKPLIHSPSRTPVLVGSDEFDKCLSNDKFSHEEYSNGALSILQYPYDNGYYLPYYKRERNKRSTQITVRFLDNPHYNKN
Take B2: the Kd in assay [2] was 850 nM; in assay [3] it was 830 nM; in assay [4], 1370 nM; in assay [5], 1340 nM.

B3: Perk luminal domain region I–IV (residues 54–403) (domain or fragment)
chain: TSATRVPAAGAVAAAEVTVEDAEALPAAAGEQEPRGPEPDDETELRPRGRSLVIISTLDGRIAALDPENHGKKQWDLDVGSGSLVSSSLSKPEVFGNKMIIPSLDGALFQWDQDRESMETVPFTVESLLESSYKFGDDVVLVGGKSLTTYGLSAYSGKVRYICSALGCRQWDSDEMEQEEDILLLQRTQKTVRAVGPRSGNEKWNFSVGHFELRYIPDMETRAGFIESTFKPNENTEESKIISDVEEQEAAIMDIVIKVSVADWKVMAFSKKGGHLEWEYQFCTPIASAWLLKDGKVIPISLFDDTSYTSNDDVLEDEEDIVEAARGATENSVYLGMYRGQLYLQSSVRI
For the molecule B3, binding in assay [1] was put at a Kd of 2350 nM.

B4: Perk luminal domain region II–V (residues 105–509) (domain or fragment)
chain: LVIISTLDGRIAALDPENHGKKQWDLDVGSGSLVSSSLSKPEVFGNKMIIPSLDGALFQWDQDRESMETVPFTVESLLESSYKFGDDVVLVGGKSLTTYGLSAYSGKVRYICSALGCRQWDSDEMEQEEDILLLQRTQKTVRAVGPRSGNEKWNFSVGHFELRYIPDMETRAGFIESTFKPNENTEESKIISDVEEQEAAIMDIVIKVSVADWKVMAFSKKGGHLEWEYQFCTPIASAWLLKDGKVIPISLFDDTSYTSNDDVLEDEEDIVEAARGATENSVYLGMYRGQLYLQSSVRISEKFPSSPKALESVTNENAIIPLPTIKWKPLIHSPSRTPVLVGSDEFDKCLSNDKFSHEEYSNGALSILQYPYDNGYYLPYYKRERNKRSTQITVRFLDNPHYNKN
In the case of B4, in assay [1], binding was characterised by a dissociation constant (Kd) of 2690 nM.

B5: Ire1 luminal domain region II–IV (residues 32–390) (domain or fragment)
chain: LLFVSTLDGSLHAVSKRTGSIKWTLKEDPVLQVPTHVEEPAFLPDPNDGSLYTLGSKNNEGLTKLPFTIPELVQASPCRSSDGILYMGKKQDIWYVIDLLTGEKQQTLSSAFADSLCPSTSLLYLGRTEYTITMYDTKTRELRWNATYFDYAASLPEDDVDYKMSHFVSNGDGLVVTVDSESGDVLWIQNYASPVVAFYVWQREGLRKVMHINVAVETLRYLTFMSGEVGRITKWKYPFPKETEAKSKLTPTLYVGKYSTSLYASPSMVHEGVAVVPRGSTLPLLEGPQTDGVTIGDKGECVITPSTDVKFDPGLKSKNKLNYLRNYWLLIGHHETPLSASTKMLERFPNNLPKHRENV
Turning to B5, the Kd in assay [1] worked out at 1550 nM.

B6: Ire1 luminal domain region I–IV (residues 24–390) (domain or fragment)
chain: STVTLPETLLFVSTLDGSLHAVSKRTGSIKWTLKEDPVLQVPTHVEEPAFLPDPNDGSLYTLGSKNNEGLTKLPFTIPELVQASPCRSSDGILYMGKKQDIWYVIDLLTGEKQQTLSSAFADSLCPSTSLLYLGRTEYTITMYDTKTRELRWNATYFDYAASLPEDDVDYKMSHFVSNGDGLVVTVDSESGDVLWIQNYASPVVAFYVWQREGLRKVMHINVAVETLRYLTFMSGEVGRITKWKYPFPKETEAKSKLTPTLYVGKYSTSLYASPSMVHEGVAVVPRGSTLPLLEGPQTDGVTIGDKGECVITPSTDVKFDPGLKSKNKLNYLRNYWLLIGHHETPLSASTKMLERFPNNLPKHRENV
Take B6: binding in assay [1] was characterised by a dissociation constant (Kd) of 1860 nM.

B7: Ire1 luminal domain region II–V (residues 32–440) (domain or fragment)
chain: LLFVSTLDGSLHAVSKRTGSIKWTLKEDPVLQVPTHVEEPAFLPDPNDGSLYTLGSKNNEGLTKLPFTIPELVQASPCRSSDGILYMGKKQDIWYVIDLLTGEKQQTLSSAFADSLCPSTSLLYLGRTEYTITMYDTKTRELRWNATYFDYAASLPEDDVDYKMSHFVSNGDGLVVTVDSESGDVLWIQNYASPVVAFYVWQREGLRKVMHINVAVETLRYLTFMSGEVGRITKWKYPFPKETEAKSKLTPTLYVGKYSTSLYASPSMVHEGVAVVPRGSTLPLLEGPQTDGVTIGDKGECVITPSTDVKFDPGLKSKNKLNYLRNYWLLIGHHETPLSASTKMLERFPNNLPKHRENVIPADSEKKSFEEVINLVDQTSENAPTTVSRDVEEKPAHAPARPEAPVDSM
On to B7, for which, in assay [1], the affinity, expressed as Kd, was 2020 nM.

B8: Ire1 luminal domain, complete (region I–V, residues 24–440) (domain or fragment)
chain: STVTLPETLLFVSTLDGSLHAVSKRTGSIKWTLKEDPVLQVPTHVEEPAFLPDPNDGSLYTLGSKNNEGLTKLPFTIPELVQASPCRSSDGILYMGKKQDIWYVIDLLTGEKQQTLSSAFADSLCPSTSLLYLGRTEYTITMYDTKTRELRWNATYFDYAASLPEDDVDYKMSHFVSNGDGLVVTVDSESGDVLWIQNYASPVVAFYVWQREGLRKVMHINVAVETLRYLTFMSGEVGRITKWKYPFPKETEAKSKLTPTLYVGKYSTSLYASPSMVHEGVAVVPRGSTLPLLEGPQTDGVTIGDKGECVITPSTDVKFDPGLKSKNKLNYLRNYWLLIGHHETPLSASTKMLERFPNNLPKHRENVIPADSEKKSFEEVINLVDQTSENAPTTVSRDVEEKPAHAPARPEAPVDSM
On to B8, for which the Kd in assay [2] was 1140 nM; in assay [3], 1090 nM; in assay [4], 1200 nM; in assay [5], 1920 nM.

In general, Kd refers to the free concentration of one partner at which half of the binding sites on the other are occupied at equilibrium, for simple one-to-one binding. The low end stands for tighter binding, the high end for weaker binding.
